In the supplement of paper PMC12764529:
± gives the half width of the 95% confidence interval.

What was measured:
[1] = folding stability dG unfold (combined trypsin and chymotrypsin); higher = more stable
How it was run: (§1)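 Sequencing followed digestion of designed mini-proteins with trypsin and chymotrypsin, each at 11 concentrations in threefold dilutions together with a no-protease condition. The mini-proteins were under 80 residues, had no cysteine, sat in a PA-tagged cDNA display construct, and were kept only if AlphaFold2 dimer inter-PAE was above 15. From the counts, Bayesian fitting gave K50, and unfolding free energy was derived against a sequence-predicted unfolded-state K50 and a shared folded-state K50, per protease or combined.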

[2] = folding stability dG unfold from trypsin proteolysis; higher = more stable
How it was run: as §1

[3] = folding stability dG unfold from chymotrypsin proteolysis; higher = more stable
How it was run: as §1

Q: Which “folding stability dG unfold” value [1] does the source give for “SEEEIEERIKKLAEELGFKVTEIKIEKTDNKLTVTVTITLPNGKKLTFTVTRDKNGKLTFTPEQLKKALKSA [r9_85_TrROS_Hall]” here?
A: The value was 13.4 ± 0.293 kJ/mol.

Q: And the “folding stability dG unfold” value [2]?
A: Its value is 9.88 ± 0.159 kJ/mol.

Q: What about the “folding stability dG unfold” value [3] of the same sequence?
A: The value was 15.1 ± 0.092 kJ/mol.

Q: Which results are given for “SAGGGMSTYTITINIVIDPKEKKVPKPPLKDPFKLPPLKTIPITITAETSDPAVAAALEKAVKEALGLSAGG [r13_35_JUSTAS]”?
A: folding stability dG unfold [1]: 8.39 ± 0.289 kJ/mol; folding stability dG unfold [2]: 7.24 ± 0.159 kJ/mol; folding stability dG unfold [3]: 9.16 ± 0.226 kJ/mol

Q: Which results are given for “SAGGMVKIVRVTFEDGRELVLTEPEKIEEFLKKALGPNFVIKEVREGYVPHPDGPPIPTFELVVERPSAGGS [r16_408_TrMRF]”?
A: folding stability dG unfold [1]: 10.2 ± 0.176 kJ/mol; folding stability dG unfold [2]: 8.82 ± 0.222 kJ/mol; folding stability dG unfold [3]: 11.09 ± 0.0879 kJ/mol

Q: Which “folding stability dG unfold” value [1] does the source give for “SSEILEKLAKELPDLEPVGVEEEPLPDGGRRLTLVARRPETGTYVRVTVDVPPGGGVASVEVEEVPVSRLSA [r9_274_JUSTAS]” here?
A: The value was 7.42 ± 0.226 kJ/mol.

Q: What about the “folding stability dG unfold” value [2] of the same sequence?
A: The value was 2.21 ± 0.226 kJ/mol.

Q: And the “folding stability dG unfold” value [3]?
A: Its value is 9.31 ± 0.138 kJ/mol.

Q: With “SAGGSAGGSAGKTLVFKTKEEALKAIEEEAKKKGYKKVKIEITEVGPDGKVKVKVKIEKKSAGGSAGGSAGG [r17_430_TrROS_Hall]” as the sequence, how does the “folding stability dG unfold” value [1] read?
A: Its value is 5.43 ± 0.795 kJ/mol.

Q: And the “folding stability dG unfold” value [2]?
A: The value was 3.19 ± 0.197 kJ/mol.

Q: And the “folding stability dG unfold” value [3]?
A: Its value is 5.61 ± 0.753 kJ/mol.

Q: Which results are given for “SAGGSAGGSAGGLEIELPNARIRIEELEGEPRRIRVRVEFFPPDGGRLSAEAEFDILPDLSAGGSAGGSAGG [r17_184_TrMRF]”?
A: folding stability dG unfold [1]: 10.8 ± 0.385 kJ/mol; folding stability dG unfold [2]: 11.1 ± 0.234 kJ/mol; folding stability dG unfold [3]: 10.5 ± 0.335 kJ/mol

Q: Which results are given for “SAGSITLVFKTPEELEEALKKLAEELGLSEEEVEALKKELEEKFTITYDEETGYVTITLKPELSEEELKSAG [r5_717_TrROS_Hall]”?
A: folding stability dG unfold [1]: 14.4 ± 1 kJ/mol; folding stability dG unfold [2]: 8.39 ± 0.544 kJ/mol; folding stability dG unfold [3]: 15.5 ± 0.628 kJ/mol

Q: For “SANDKHKYEEEYPYRNPNDPGQPMPFKREREVPVQPPPVITIDADELAKELKEQGEIKIPPDGWIAIPFSAG [r14_582_TrROS]”, which “folding stability dG unfold” value [1] is on record?
A: Its value is 14.7 ± 2.05 kJ/mol.

Q: What about the “folding stability dG unfold” value [2] of the same sequence?
A: Its value is 12.9 ± 1.67 kJ/mol.

Q: And the “folding stability dG unfold” value [3]?
A: The value was 17.1 ± 0.837 kJ/mol.

Q: With “SAGGSAGGSLMIPIPPGKPINIKFEIKNDDGHPMRITETYPVKNGYYVIRVENPNGNEQIIPFSAGGSAGGS [r12_31_TrROS]” as the sequence, how does the “folding stability dG unfold” value [1] read?
A: The value was -0.773 ± 0.586 kJ/mol.

Q: And the “folding stability dG unfold” value [2]?
A: The value was -1.03 ± 0.628 kJ/mol.

Q: What about the “folding stability dG unfold” value [3] of the same sequence?
A: Its value is -1.13 ± 0.837 kJ/mol.

Q: What does the source list for “SAGGSAGGSAGPEILIVVESEEEAKKLAEELARALREAGLPEDAKIKIKIIVLPKEELEKSAGGSAGGSAGG [r17_180_TrROS_Hall]”?
A: folding stability dG unfold [1]: 8.86 ± 0.276 kJ/mol; folding stability dG unfold [2]: 7.38 ± 0.259 kJ/mol; folding stability dG unfold [3]: 9.75 ± 0.201 kJ/mol

Q: Which “folding stability dG unfold” value [1] does the source give for “SAGGSAKILEEALEALKKAKPGEEVEIEIEIEVNGKKYRIKVKVTYDEETGKITIEIVEIEELPEESAGGSA [r15_724_TrROS_Hall]” here?
A: Its value is 15.9 ± 0.586 kJ/mol.

Q: And the “folding stability dG unfold” value [2]?
A: Its value is 13.5 ± 0.586 kJ/mol.

Q: And the “folding stability dG unfold” value [3]?
A: The value was 17.2 ± 0.586 kJ/mol.

Q: Which “folding stability dG unfold” value [1] does the source give for “FEELRNLPGLSLTPLAEEGEVRVYRLSLPPSVLAARGLPGVTVTVTVFPDGSYTVLPDDVPALEAAGLVVES [r1_256_JUSTAS]” here?
A: Its value is 8.5 ± 0.188 kJ/mol.

Q: What about the “folding stability dG unfold” value [2] of the same sequence?
A: Its value is 4.39 ± 0.0837 kJ/mol.

Q: What about the “folding stability dG unfold” value [3] of the same sequence?
A: Its value is 10.2 ± 0.155 kJ/mol.

Q: With “SAGGDGPPKFEPISIPIGDGVIKIWRSPNGSIHLEIMPPGGKPVASKEYPFPDGRKLKLDIQVKPPEDSAGG [r13_584_TrROS]” as the sequence, how does the “folding stability dG unfold” value [1] read?
A: The value was 1.95 ± 0.586 kJ/mol.

Q: And the “folding stability dG unfold” value [2]?
A: The value was 1.65 ± 0.544 kJ/mol.

Q: And the “folding stability dG unfold” value [3]?
A: The value was 1.05 ± 0.753 kJ/mol.

Q: Which “folding stability dG unfold” value [1] does the source give for “SAGGSAGGSMPKTYSFKVKSKEEIVKLIEELKKLGAKKVEVKELPDGYELYVEVGDSVIKVYSSAGGSAGGS [r12_846_TrMRF]” here?
A: The value was 5.18 ± 0.544 kJ/mol.

Q: What about the “folding stability dG unfold” value [2] of the same sequence?
A: Its value is 5.48 ± 0.272 kJ/mol.

Q: What about the “folding stability dG unfold” value [3] of the same sequence?
A: The value was 4.61 ± 0.669 kJ/mol.

Q: Which results are given for “SAGGSAGGVERIKKLLEELGAEVVKVEKLENGKTLIYIKVKSEEQREALKALLPEEDIEIIEPESAGGSAGG [r6_83_TrROS_Hall]”?
A: folding stability dG unfold [1]: 18.6 ± 0.711 kJ/mol; folding stability dG unfold [2]: 19.6 ± 2.43 kJ/mol; folding stability dG unfold [3]: 18.7 ± 0.711 kJ/mol

Q: For “SAGGSAGGMVVERKDMDPEEAVEDTKKRIKEETGWEVTEITVTEFPEEPRLVVTIKVKKPPEKSSAGGSAGG [r6_462_JUSTAS]”, which “folding stability dG unfold” value [1] is on record?
A: Its value is 1.71 ± 0.41 kJ/mol.

Q: What about the “folding stability dG unfold” value [2] of the same sequence?
A: The value was -1.2 ± 0.46 kJ/mol.

Q: What about the “folding stability dG unfold” value [3] of the same sequence?
A: The value was 2.97 ± 0.0669 kJ/mol.

Q: For “SAGGSAIKVSTSPSDVSVSKVPLPNGETLTIEVSSNGETTVTKTSPTPGTPTTTTVPGASVEELLESAGGSA [r15_406_JUSTAS]”, which “folding stability dG unfold” value [1] is on record?
A: The value was 3.19 ± 0.13 kJ/mol.

Q: What about the “folding stability dG unfold” value [2] of the same sequence?
A: The value was 1.39 ± 0.142 kJ/mol.

Q: And the “folding stability dG unfold” value [3]?
A: Its value is 4.08 ± 0.0837 kJ/mol.
